Experimental findings from US20220089776A1 (OREGON HEALTH AND SCIENCE UNIVERSITY, published 2022) are described below.

Assay [1] addresses T1, human blood protein factor XII (FXII) (human, UniProt P00748 20-615).
T1 construct: mature; Single-chain zymogen as it circulates in plasma; also called human FXII; plasma-derived FXII
T1 sequence (looked up): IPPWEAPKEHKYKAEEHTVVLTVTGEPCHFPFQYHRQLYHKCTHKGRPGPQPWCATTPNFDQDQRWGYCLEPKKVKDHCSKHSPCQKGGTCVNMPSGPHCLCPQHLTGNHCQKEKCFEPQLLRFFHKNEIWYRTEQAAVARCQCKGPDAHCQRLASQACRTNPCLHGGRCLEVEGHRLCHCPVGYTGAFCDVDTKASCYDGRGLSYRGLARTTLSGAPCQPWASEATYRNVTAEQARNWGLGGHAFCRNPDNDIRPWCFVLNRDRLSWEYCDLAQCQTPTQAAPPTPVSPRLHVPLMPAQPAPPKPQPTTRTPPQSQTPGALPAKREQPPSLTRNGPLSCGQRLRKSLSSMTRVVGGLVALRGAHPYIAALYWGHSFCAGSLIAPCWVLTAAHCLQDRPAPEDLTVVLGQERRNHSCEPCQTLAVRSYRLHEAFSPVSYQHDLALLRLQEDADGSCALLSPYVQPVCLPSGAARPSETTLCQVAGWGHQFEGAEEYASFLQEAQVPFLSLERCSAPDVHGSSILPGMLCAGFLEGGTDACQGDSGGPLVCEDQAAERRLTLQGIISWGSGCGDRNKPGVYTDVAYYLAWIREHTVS
Put plainly: BLI (Octet RED96), antibody on anti-human Fc biosensors, antigen in solution, 1:1 fit. How it is done:
Multi-concentration kinetic experiments were performed on the Octet RED96 system (ForteBio). Anti-human Fc biosensors (ForteBio) were hydrated in sample diluent (0.1% BSA in PBS and 0.02% Tween 20) and preconditioned in pH 1.9 Glycine. Antigen was diluted by a 7-point, 3-fold serial dilution starting at 200 nM with sample diluent. Antibodies were diluted to 1μg/ml with sample diluent and then immobilized onto anti-human Fc biosensors. After baselines were established for 30 seconds in sample diluent, the biosensors were moved to wells containing serially diluted antigen to measure the association and dissociation. […] The binding affinities were characterized by fitting the kinetic sensorgrams to a monovalent binding model (1:1 binding).
In general terms: Biolayer interferometry detects binding as a change in optical thickness at a sensor tip.

Assay [2] has as its target T1, human blood protein factor XII (FXII). Put plainly: ELISA, human FXII coated at 1 µg/mL, goat anti-human IgG-HRP detection. As to the method:
One μg/mL of human FXII (Enzyme Research Labs, #HFXII 1212) was coated on the ELISA plate at 4° C. overnight. The coated plate was blocked with 2% BSA in phosphate buffered saline (PBS) at room temperature for one hour and then washed three times with PBS. All antibodies to be tested (PP13892-PP13901 or human Fc isotype control) were diluted with sample diluent in an 11 point, 5-fold, serial dilution starting at 10 μg/mL. Each sample was run in duplicate. Each concentration was incubated on the coated plate for one hour at room temperature and then washed three times with PBS. Bound antibody was detected with goat-anti-human IgG-HRP and washed six times with PBS. TMB substrate was added to each well and the reaction was stopped with 1M HCl. Absorbance was read at 450 nm.
EC₅₀ for the concentration response curve was calculated by plotting the OD measured at 450 nm against the logarithm of antibody concentration and the EC₅₀ was calculated by nonlinear regression analysis.
(ELISA stands for enzyme-linked immunosorbent assay.)

B1: Chimera (chimeric parental antibody) PP13892 (antibody, human IgG4, V domains shown)
VH: DVQLQESGPDLVKPSQSLSLTCTVTGYSITSGYSWHWIRQFPGNNLEWMGYIQYSGNTNSNPSLKSRISITRDTSKNQFFLHLNSVTTEDTATYYCARWGSFDYWGQGTTLTVSS
VL: QIVLTQSPAIMSASPGEKVTMTCSASSSVNYMHWYQQKSGTSPKRWIYDTSKLASGVPARFSGSGSGTSYSLTISSMEAGDAATYYCQQWSGNPPTFGGGTILEIK
notes: Variable regions of murine AB053 on the same human IgG4 (S241P hinge modified) backbone as the humanized antibodies; also called H7879 + L7879
The term Kd denotes the free concentration of one partner at which half of the binding sites on the other are occupied at equilibrium, for simple one-to-one binding. The low end stands for a tighter complex, the high end for a looser complex. In general, koff refers to the first-order rate constant of dissociation. A low value points to a long-lived complex. The kon is the rate constant with which the complex forms. A lower kon goes with slower complex formation. As a reminder, the EC50 is the midpoint of the concentration-response curve. A lower EC50 goes with greater potency. In assay [1], B1 yielded a Kd of 0.24 nM, a koff of 0.00011 s⁻¹ and a kon of 460000 M⁻¹ s⁻¹. Further, it took 9.04 ng/mL to reach a half-maximal effect in assay [2] (EC50).

B2: humanized 5C12 antibody HC1 + LC1 (PP13893) (antibody, human IgG4 S228P, kappa, V domains shown)
VH: QVQLQESGPGLVKPSQTLSLTCTVSGYSITSGYSWHWIRQHPGKGLEWIGYIQYSGNTNSNPSLKSRVTISRDTSKNQFSLKLSSVTAADTAVYYCARWGSFDYWGQGTLVTVSS
VL: EIVLTQSPATLSLSPGERATLSCRASSSVNYLHWYQQKPGQAPRRLIYDTSKLATGIPARFSGSGSGTDYTLTISSLEPEDFAVYYCQQWSGNPPTFGGGTKVEIKR
notes: Human IgG4 (S241P hinge modified), expressed in HEK293; also called AB054; h5C12
In assay [1], B2 showed a Kd of 0.3 nM, a koff of 0.00016 s⁻¹ and a kon of 530000 M⁻¹ s⁻¹. Also, in assay [2], the EC50 stood at 9.12 ng/mL.

B3: humanized 5C12 antibody HC3 + LC2 (PP13900) (antibody, human IgG4 S228P, kappa, V domains shown)
VH: DVQLQESGPGLVKPSETLSLTCTVSGYSITSGYSWHWIRQPPGKGLEWIGYIQYSGNTNSNPSLKSRVTISRDTSKNQFSLRLSSVTAADTAVYYCARWGSFDYWGQGTMVTVSS
VL: EIVLTQSPATLSLSPGERATLSCRASSSVNYLHWYQQKPGQAPKRWIYDTSKLATGIPARFSGSGSGTDYTLTISSLEPEDFAVYYCQQWSGNPPTFGGGTKVEIKR
notes: Human IgG4 (S241P hinge modified), expressed in HEK293; also called H7882 + L7881
In assay [1], B3 yielded a Kd of 0.32 nM, a koff of 0.00019 s⁻¹ and a kon of 580000 M⁻¹ s⁻¹. In assay [2], a half-maximal response (EC50) required 7.69 ng/mL.

B4: humanized 5C12 antibody HC1 + LC3 (PP13895) (antibody, human IgG4 S228P, kappa, V domains shown)
VH: QVQLQESGPGLVKPSQTLSLTCTVSGYSITSGYSWHWIRQHPGKGLEWIGYIQYSGNTNSNPSLKSRVTISRDTSKNQFSLKLSSVTAADTAVYYCARWGSFDYWGQGTLVTVSS
VL: DIVLTQTPATLSLSPGERATLSCRASSSVNYLHWYQQKPGQAPKRLIYDTSKLATGIPARFSGSGSGTDYTLTISSLEPEDFAVYYCQQWSGNPPTFGQGTRLEIKR
notes: Human IgG4 (S241P hinge modified), expressed in HEK293; also called H7880 + L7882
As for B4, in assay [1], the affinity, expressed as Kd, was 0.41 nM; the koff was found to be 0.0002 s⁻¹; the kon was found to be 500000 M⁻¹ s⁻¹. In assay [2], the midpoint of the response, the EC50, lay at 9.02 ng/mL.

B5: humanized 5C12 antibody HC2 + LC3 (PP13898) (antibody, human IgG4 S228P, kappa, V domains shown)
VH: DVQLQESGPGLVKPSQTLSLTCTVTGYSITSGYSWHWIRQHPGKGLEWMGYIQYSGNTNSNPSLKSRVTISRDTSKNQFSLKLSSVTAADTAVYYCARWGSFDYWGQGTLVTVSS
VL: DIVLTQTPATLSLSPGERATLSCRASSSVNYLHWYQQKPGQAPKRLIYDTSKLATGIPARFSGSGSGTDYTLTISSLEPEDFAVYYCQQWSGNPPTFGQGTRLEIKR
notes: Human IgG4 (S241P hinge modified), expressed in HEK293; also called H7881 + L7882
As to B5, in assay [1], the affinity, expressed as Kd, was 0.31 nM; the koff is 0.00016 s⁻¹; the kon stood at 500000 M⁻¹ s⁻¹. In assay [2], this molecule displayed an EC50 of 8.09 ng/mL.

B6: humanized 5C12 antibody HC1 + LC2 (PP13894) (antibody, human IgG4 S228P, kappa, V domains shown)
VH: QVQLQESGPGLVKPSQTLSLTCTVSGYSITSGYSWHWIRQHPGKGLEWIGYIQYSGNTNSNPSLKSRVTISRDTSKNQFSLKLSSVTAADTAVYYCARWGSFDYWGQGTLVTVSS
VL: EIVLTQSPATLSLSPGERATLSCRASSSVNYLHWYQQKPGQAPKRWIYDTSKLATGIPARFSGSGSGTDYTLTISSLEPEDFAVYYCQQWSGNPPTFGGGTKVEIKR
notes: Human IgG4 (S241P hinge modified), expressed in HEK293; also called H7880 + L7881
In assay [1], B6 showed a Kd of 0.3 nM, a koff of 0.00016 s⁻¹ and a kon of 530000 M⁻¹ s⁻¹. This molecule also showed an EC50 in assay [2] of 8.22 ng/mL.

B7: humanized 5C12 antibody HC3 + LC3 (PP13901) (antibody, human IgG4 S228P, kappa, V domains shown)
VH: DVQLQESGPGLVKPSETLSLTCTVSGYSITSGYSWHWIRQPPGKGLEWIGYIQYSGNTNSNPSLKSRVTISRDTSKNQFSLRLSSVTAADTAVYYCARWGSFDYWGQGTMVTVSS
VL: DIVLTQTPATLSLSPGERATLSCRASSSVNYLHWYQQKPGQAPKRLIYDTSKLATGIPARFSGSGSGTDYTLTISSLEPEDFAVYYCQQWSGNPPTFGQGTRLEIKR
notes: Human IgG4 (S241P hinge modified), expressed in HEK293; also called H7882 + L7882
Turning to B7, in assay [1], the Kd was determined as 0.35 nM, the koff was found to be 0.00018 s⁻¹ and the kon was 530000 M⁻¹ s⁻¹. Besides, the EC50 in assay [2] worked out at 9.47 ng/mL.

B8: humanized 5C12 antibody HC2 + LC1 (PP13896) (antibody, human IgG4 S228P, kappa, V domains shown)
VH: DVQLQESGPGLVKPSQTLSLTCTVTGYSITSGYSWHWIRQHPGKGLEWMGYIQYSGNTNSNPSLKSRVTISRDTSKNQFSLKLSSVTAADTAVYYCARWGSFDYWGQGTLVTVSS
VL: EIVLTQSPATLSLSPGERATLSCRASSSVNYLHWYQQKPGQAPRRLIYDTSKLATGIPARFSGSGSGTDYTLTISSLEPEDFAVYYCQQWSGNPPTFGGGTKVEIKR
notes: Human IgG4 (S241P hinge modified), expressed in HEK293; also called H7881 + L7880
In assay [1], B8 yielded a Kd of 0.44 nM, a koff of 0.00022 s⁻¹ and a kon of 500000 M⁻¹ s⁻¹. A half-maximal effect in assay [2] (EC50) was put at 8.24 ng/mL.

B9: humanized 5C12 antibody HC2 + LC2 (PP13897) (antibody, human IgG4 S228P, kappa, V domains shown)
VH: DVQLQESGPGLVKPSQTLSLTCTVTGYSITSGYSWHWIRQHPGKGLEWMGYIQYSGNTNSNPSLKSRVTISRDTSKNQFSLKLSSVTAADTAVYYCARWGSFDYWGQGTLVTVSS
VL: EIVLTQSPATLSLSPGERATLSCRASSSVNYLHWYQQKPGQAPKRWIYDTSKLATGIPARFSGSGSGTDYTLTISSLEPEDFAVYYCQQWSGNPPTFGGGTKVEIKR
notes: Human IgG4 (S241P hinge modified), expressed in HEK293; also called H7881 + L7881
B9: in assay [1], the dissociation constant Kd was 0.15 nM, the koff is 9e-05 s⁻¹ and the kon stood at 620000 M⁻¹ s⁻¹. For the same molecule, the EC50 in assay [2] was 8.78 ng/mL.

B10: humanized 5C12 antibody HC3 + LC1 (PP13899) (antibody, human IgG4 S228P, kappa, V domains shown)
VH: DVQLQESGPGLVKPSETLSLTCTVSGYSITSGYSWHWIRQPPGKGLEWIGYIQYSGNTNSNPSLKSRVTISRDTSKNQFSLRLSSVTAADTAVYYCARWGSFDYWGQGTMVTVSS
VL: EIVLTQSPATLSLSPGERATLSCRASSSVNYLHWYQQKPGQAPRRLIYDTSKLATGIPARFSGSGSGTDYTLTISSLEPEDFAVYYCQQWSGNPPTFGGGTKVEIKR
notes: Human IgG4 (S241P hinge modified), expressed in HEK293; also called H7882 + L7880
In the case of B10, in assay [1], the Kd is 0.27 nM, the dissociation rate constant (koff) is 0.00015 s⁻¹ and the kon was found to be 560000 M⁻¹ s⁻¹. Moreover, in assay [2], the EC50 stood at 8.48 ng/mL.
